Reference: patent US12365732 (23ANDME, dated 2025)
Positions count from the first letter of the chain named. Names and notes keep the numbering of the source.

Legend:
[1] = target: T1, hu-CD96 isoform 2 on CHO cells (human, UniProt P40200 22-585); test: FACS, Ab 10 nM
T1 construct: also called CHO-CD96 (isoform 2); CD96-CHOs
T1 sequence: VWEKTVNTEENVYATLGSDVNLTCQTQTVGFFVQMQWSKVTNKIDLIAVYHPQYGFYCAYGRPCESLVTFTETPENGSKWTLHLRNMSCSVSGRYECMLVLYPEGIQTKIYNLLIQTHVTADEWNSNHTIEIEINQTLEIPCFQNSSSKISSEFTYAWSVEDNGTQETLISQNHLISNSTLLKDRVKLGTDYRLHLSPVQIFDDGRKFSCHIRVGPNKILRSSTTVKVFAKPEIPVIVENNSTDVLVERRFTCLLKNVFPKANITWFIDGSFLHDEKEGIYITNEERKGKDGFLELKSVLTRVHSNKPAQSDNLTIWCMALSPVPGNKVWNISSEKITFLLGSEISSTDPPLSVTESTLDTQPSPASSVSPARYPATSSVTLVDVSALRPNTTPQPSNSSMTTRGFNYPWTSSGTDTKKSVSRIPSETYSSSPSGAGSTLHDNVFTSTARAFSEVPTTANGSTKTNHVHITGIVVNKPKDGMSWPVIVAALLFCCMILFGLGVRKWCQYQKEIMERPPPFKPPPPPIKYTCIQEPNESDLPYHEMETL
Protocol: (§1) Isoform 1 of hu-CD96 (Origene, catalog #RC213845) was transiently expressed in HEK293T cells following standard lipofectamine or Fugene transfection protocol. […] Cells were washed, and binding was detected by incubation with anti-mouse IgG-FITC (Biolegend, catalog #406001) for 20 minutes at 4° C. Cell binding was analyzed by flow cytometry with a CytoFLEX (Beckman Coulter). Binding curves were calculated as a percentage of cells positive for bound antibody.
(§2) Isoform 2 of hu-CD96 (DNA construct: Origene, catalog #RC221005) was expressed on a single-cell-clone-derived CHO stable cell line. Binding of the anti-CD96 antibodies to the CHO cells were determined as described above with isoform 1 of hu-CD96.

[2] = target: T1, hu-CD96 isoform 2 on CHO cells; test: FACS, Ab 0.4 nM
Protocol: as §1, §2

[3] = target: T2, cynomolgus monkey CD96 on cynomolgus monkey PBMCs (cynomolgus monkey, UniProt A0A2K5TWV6 22-569); test: FACS, Ab 0.64 nM
T2 construct: whole, on cells
T2 sequence: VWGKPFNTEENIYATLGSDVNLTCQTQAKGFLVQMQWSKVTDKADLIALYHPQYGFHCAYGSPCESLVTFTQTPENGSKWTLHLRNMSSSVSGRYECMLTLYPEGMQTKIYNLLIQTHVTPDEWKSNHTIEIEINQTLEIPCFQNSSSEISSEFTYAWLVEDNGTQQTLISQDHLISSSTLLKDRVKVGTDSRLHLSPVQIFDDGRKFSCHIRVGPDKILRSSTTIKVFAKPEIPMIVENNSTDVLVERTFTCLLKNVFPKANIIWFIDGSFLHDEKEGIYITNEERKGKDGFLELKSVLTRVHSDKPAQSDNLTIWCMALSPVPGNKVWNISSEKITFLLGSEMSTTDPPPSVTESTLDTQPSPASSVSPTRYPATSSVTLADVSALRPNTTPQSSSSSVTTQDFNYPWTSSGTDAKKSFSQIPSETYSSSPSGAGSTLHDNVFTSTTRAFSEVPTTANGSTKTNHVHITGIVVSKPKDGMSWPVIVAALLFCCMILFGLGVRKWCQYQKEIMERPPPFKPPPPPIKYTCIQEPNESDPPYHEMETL
Protocol: (§3) The ability of the anti-CD96 antibodies to bind primary immune cells from human and cynomolgus monkey with lower level of receptor expression was measured. Human PBMCs (StemCell Technologies, catalog #70025) and cynomolgus monkey PBMCs (Primate Biologicals, catalog #CM-MC) were incubated with human TruStain FcX (Biolegend, catalog #422302) for 10 minutes at 4° C., followed by incubation with an anti-CD96 antibody for 20 minutes at 4° C. Cells were washed and the anti-CD96 antibody binding was detected by incubation with anti-mouse IgG-PE (Thermo Fisher, catalog #M30204) or anti-human IgG (Fab) 2-PE (Thermo Fisher, catalog #H10104) for 20 minutes at 4° C. Cells were washed, and immune subtypes were labeled with anti-CD3 (BD, catalog #557705), anti-CD4 (Biolegend, catalog #317424) and anti-CD8 (BD, catalog #557760) for 20 minutes at 4° C. Cell binding was analyzed by flow cytometry with a CytoFLEX (Beckman Coulter). Binding curves were calculated as a percentage of cells positive for bound antibody in the cell type of interest.

[4] = target: T2, cynomolgus monkey CD96 on cynomolgus …; test: FACS, % positive curve
Protocol: as §3

hu-CD96 Fc = target: T3, hu-CD96 Fc (human, biotinylated in Table 16); test: SPR 37C, biotin-CD96-Fc captured, IgG analyte
T3 construct: also called biotinylated hu-CD96-Fc
Protocol: (§4) Briefly, a 1:4 dilution of Biotin CAPture Reagent (GE Healthcare) into HBS-EP buffer (0.01 M HEPES pH 7.4, 0.15 M NaCl, 3 mM EDTA, 0.005% Surfactant P20) was applied to the chip at 2 µL/min flow rate. For the kinetics measurements, 20 nM biotinylated hu-CD96-Fc and cy-CD96-Fc was captured at 10 µL/min to achieve ~50 response units in the second flow cell (FC2). FC1 was kept as a reference. Next, 4-fold serial dilutions of IgG in HBS-P buffer (0.01 M HEPES pH 7.4, 0.15 M NaCl, 0.005% surfactant P20) from low (3.125 nM) to high (200 nM) concentration were injected (flow rate: 10 µL/min) at 37° C. The sensorgram was recorded and subject to reference and buffer subtraction before evaluating by BIACORE® 8K Evaluation Software (version 1.1.1.7442). Association rates ($kon$) and dissociation rates ($koff$) were calculated using a simple one-to-one Langmuir binding model. The equilibrium dissociation constant (K_D) value was calculated as the ratio of $koff/kon$.

cy-CD96 Fc = target: T4, cy-CD96 Fc (cynomolgus monkey, biotinylated in Table 16); test: SPR 37C, biotin-CD96-Fc captured, IgG analyte
T4 construct: also called biotinylated cy-CD96-Fc
Protocol: as §4

B1: 10G1 (clone 10G1.3G8), purified hybridoma antibody (antibody, V domains shown)
VH: QIQLVQSGPELKKPGETVKISCKASGYPFTTYGMSWVKQAPGKGLKWMGWINTDSGVPTYADDFKGRFAFSLETSANTAYLQINSLKNEDAATYFCARNIYYGWGNFDYWGQGTILTVSS
VL: DILMTQSPTTLSVTPGETVSLSCRASQDIYRNLHWYQQKSQGTPRLLIKHASDSISGIPSRFTGSGSGTDFTLSINSVKPEDEGIYYCLQGYSMPYTFGGGTKLEIK
notes: murine hybridoma IgG
[1]
  % positive: 39.2%
[2]
  % positive: 25%

B2: 9H4, purified hybridoma antibody (antibody, V domains shown)
VH: EVQLLETGGGLVKSGGSLKLSCAASGFTFSDYYMYWVRQTPEKRLEWVAAISDDGTYTYYPDSVKGRFTISRDNANNYLYLQMSSLKSEDTAIYYCAKAGSYDYFDVWGAGTTVTVSS
VL: DIVLTQSPASLAVSLGQRAIISCKASQSVTFADTGLMHWYQQKPGQQPKLLIYRASNLEVGVPTRFSGSGSGTDFTLNIHPVEEEDVATYYCQQSREYPWTFGGGTKLEIK
notes: murine hybridoma IgG
[1]
  % positive: 46.1%
[2]
  % positive: 24.1%

B3: 7E5, purified hybridoma antibody (antibody, V domains shown)
VH: QVQLKESGPGLVAPSQSLSIICTVSGFSLTNYGIHWIRQPPGKGLEWLGIIWAGGSTNYNSALMSRLTISKDNSKSQVFLKMNSLQTNDTAIYYCARVSMMGFAYWGQGTLVTVSA
VL: QAVVTQESALTTSPGETVTLTCRSSTGAVTTSNYANWVQEKPDHLFTGLIGGTNNRAPGVPARFSGSLIGDKAALTITGAQTEDEAIYFCSLWYGSHWVFGGGTKLTVL
notes: murine hybridoma IgG
[1]
  % positive: 56.1%
[2]
  % positive: 44.1%

B4: mAb1.v7 IgG (humanized 12F8) (antibody, V domains shown)
VH: EVQLVQSGAEVKKPGASVKVSCKASGFTFTNNWMHWVRQAPGQGLEWIGMIHPNSGITNINEKFKNRVTMTTDTSTSTAYMELRSLRSEDTAVYYCRSDGTYEGYFDYWGQGTLVTVSS
VL: DIQLTQSPSSLSASVGDRVTITCKASQNVGTAIVWYQQKPGKAPKVLIYSASTRYTGVPSRFSGSGSGTDFTLTISSLQPEDFATYYCQQYSSSPLTFGQGTKVEIKG
notes: human IgG1 N297G
[1]
  % positive: 44.8%
[2]
  % positive: 17.7%

B5: mAb1.v7.NGS9 IgG (antibody, V domains shown)
VH: B4 VH with W33F, P53A, T101V
VL: B4 VL
notes: human IgG1 N297G
[3]
  % positive: 71%
[4]
  EC50: 0.073 nM
hu-CD96 Fc
  Kd: 0.2 nM
  koff: 5.42e-05 s⁻¹
  kon: 266000 M⁻¹ s⁻¹
cy-CD96 Fc
  Kd: 2.88 nM
  koff: 0.000734 s⁻¹
  kon: 255000 M⁻¹ s⁻¹

B6: mAb1.v7.NGS10 IgG (antibody, V domains shown)
VH: B4 VH with W33F, M50F, P53A, T101I
VL: B4 VL
notes: human IgG1 N297G
[3]
  % positive: 73.1%
[4]
  EC50: 0.024 nM
hu-CD96 Fc
  Kd: 0.01 nM
  koff: 1.84e-06 s⁻¹
  kon: 144000 M⁻¹ s⁻¹
cy-CD96 Fc
  Kd: 0.49 nM
  koff: 0.000374 s⁻¹
  kon: 767000 M⁻¹ s⁻¹

B7: mAb1.v7.NGS11 IgG (antibody, V domains shown)
VH: B4 VH with W33F, M50F, P53A, T101V
VL: B4 VL
notes: human IgG1 N297G
[3]
  % positive: 74.3%
[4]
  EC50: 0.025 nM
hu-CD96 Fc
  Kd: 0.08 nM
  koff: 1.38e-05 s⁻¹
  kon: 173000 M⁻¹ s⁻¹
cy-CD96 Fc
  Kd: 1.52 nM
  koff: 0.000513 s⁻¹
  kon: 338000 M⁻¹ s⁻¹

B8: h10G1 IgG (humanized 10G1) (antibody, V domains shown)
VH: EIQLVQSGSELKKPGASVKVSCKASGYPFTTYGMSWVRQAPGQGLEWMGWINTDSGVPTYADDFKGRFVFSLDTSVSTAYLQISSLKAEDTAVYFCARNIYYGWGNFDYWGQGTLVTVSS
VL: EIVMTQSPDFQSVTPKEKVTITCRASQDIYRNLHWYQQKPDQTPKLLIKHASDSISGIPSRFSGSGSGTDFTLTINSLEAEDAAAYYCLQGYSMPYTFGGGTKVEIKG
notes: human IgG1 N297G
[3]
  % positive: 51.2%
[4]
  EC50: 0.12 nM
hu-CD96 Fc
  Kd: 0.64 nM
  koff: 0.000393 s⁻¹
  kon: 612000 M⁻¹ s⁻¹
cy-CD96 Fc
  Kd: 1.13 nM
  koff: 0.00789 s⁻¹
  kon: 6.99e+06 M⁻¹ s⁻¹
